Assay in all cases: cell-based or functional assay
Assay [1] deals with Native ONCONASE (Rana pipiens).
Assay [2] deals with rEDN(1-21)rOnc (human; Rana pipiens).
Another assay deals with rEDN(1-21)rOncG26.
For assay [3], the target named is [Met-(-1)]rOncG20 (Rana pipiens).
Assay [4] deals with [Met-(-1)]rOnc (Rana pipiens).
In assay [5] the target is recombinant human eosinophil-derived neurotoxin (human).

Where only a bound is given, the exact number is not on record here.

Results on 1 substance are retold here after patent publication EP0896625B1.

With “Placental ribonuclease inhibitor (from UniProt P13489 2-461)”, the Fold Difference, (+)PRI against (-)PRI in assay [1] is 1.2 fold; in the assay with rEDN(1-21)rOncG26 it was 21 fold; in assay [3] it was 0.9 fold; in assay [4], 1.4 fold; in assay [5] it was over 30.7 fold. Also, the IC50 (ng/ml), (+)PRI, inhibition of protein synthesis in the rabbit reticulocyte lysate in assay [1] is 0.24 ng/mL; in assay [2], 3200 ng/mL; in the assay with rEDN(1-21)rOncG26, 600 ng/mL; in assay [3], 24 ng/mL; in assay [4] it was 140 ng/mL; in assay [5] it was over 40 ng/mL.
